# Measurements published in patent US5882887.
# Assays:
# collagen (type III) [1] = target: collagen (type III)
# collagen (type III) [2] = target: collagen (type III); remark: listed apart in the source
binder,measurement,setting,value
recombinant Asp-Pallidipin (protein of SEQ ID NO:1) (protein) DEECELMPPGDNFDLEKYFSIPHVYVTHSRNGPKEQVCREYKTTKNSDGTTTTTLVTSDYKTGGKPYHSELKCTNTPKSGGKGQFSVECEVPNGNGGKKKIHVETSVIATDYKNYALLQSCTKTESGIADDVLLLQTKKEGVDPGVTSVLKSVNWSLDDWFSRSKVNCDNMK,attachment of 51Cr-labelled MTLn3 rat mammary tumor cells to collagen-coated wells (cpm),collagen (type III) [1],1080 cpm
same,adhesion of metastatic tumor cells to collagen,collagen (type III) [2],100 nmol/L
same,"collagen-induced aggregation of human platelets in platelet-rich plasma (aggregometer, maximum value)",collagen,50 nM
